1 molecule from patent US20070154481A1 (UCB, published 2007) can be followed below.

The target in test [1] is T1, Recombinant human IL-6 (human, UniProt P05231 29-212).
T1 construct: Bought protein; also called human recombinant IL-6; hIL-6
As to the kind of experiment: BIAcore 3000; mean of the two determinations of Table 1.1. How it is done: (§1) BIA (Biamolecular Interaction Analysis) was performed using a BIAcore 3000 (BIAcore AB). Affinipure F(ab′)₂ Fragment goat anti-human IgG, Fc fragment specific (Jackson ImmunoResearch) was immobilised on a CM5 Sensor Chip via amine coupling chemistry to a capture level of ≈5000 response units (RUs). HBS-EP buffer (10 mM HEPES pH 7.4, 0.15 M NaCl, 3 mM EDTA, 0.005% Surfactant P20, BIAcore AB) was used as the running buffer with a flow rate of 10 μl/min. A 10 μl injection of CA030₋240.g1 at 4 μg/mL was used for capture by the immobilised anti-human IgG-Fc. Human IL-6 was titrated over the captured CAO30₋240.g1 at various concentrations at a flow rate of 30 μL/min. The surface was regenerated by a 10 μL injection of 40 mM HCl, followed by a 5 μL injection of 5 mM NaOH at a flowrate of 10 μL/min.
(§2) Background subtraction binding curves were analysed using the BIAevaluation software (version 3.2) following standard procedures. Kinetic parameters were determined from the fitting algorithm.
One batch of CA030₋240.g1 was used in this study.

The target in test [2] is Human mammalian-derived IL-6 (human, UniProt P05231 30-212). Briefly: cell-based or functional assay.
Test [3] deals with T2, Recombinant Rhesus monkey IL-6 (rhesus monkey, UniProt P51494 28-212, limits assumed).
T2 sequence (looked up): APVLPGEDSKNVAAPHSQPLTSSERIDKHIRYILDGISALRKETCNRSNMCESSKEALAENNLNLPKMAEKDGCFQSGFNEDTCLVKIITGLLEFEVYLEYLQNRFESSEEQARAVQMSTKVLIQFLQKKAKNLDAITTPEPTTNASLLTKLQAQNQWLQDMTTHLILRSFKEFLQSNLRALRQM
Briefly: cell-based or functional assay.

Test [4] concerns the target T3, Recombinant cynomologous monkey IL-6 (cynomolgus monkey, UniProt P79341 28-212, limits assumed).
T3 sequence (looked up): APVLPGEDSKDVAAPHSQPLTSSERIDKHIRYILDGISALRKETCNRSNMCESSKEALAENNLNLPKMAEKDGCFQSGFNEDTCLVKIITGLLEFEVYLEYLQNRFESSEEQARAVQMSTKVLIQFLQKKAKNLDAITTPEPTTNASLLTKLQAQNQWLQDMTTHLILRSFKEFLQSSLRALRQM
Briefly: cell-based or functional assay.

Test [5] concerns the target T1, Recombinant human IL-6. As to the kind of experiment: cell-based or functional assay.
In test [6] the target is T1, Recombinant human IL-6. Briefly: BIAcore 3000; IgG4 captured by anti-human Fc F(ab')2, human IL-6 as analyte. Here is the method:
as §1, §2
(SPR reads the build-up and loss of mass on a sensor chip optically.)

Several values for one entry are separate records, joined by “and”; a condition that tells them apart may be missing. Equal entries are not always repeated.

B1: CA030-00240.g1 whole IgG4 (antibody, V domains shown)
VH: EVQLVESGGGLVQPGGSLRLSCAASGFNFNDYFMNWVRQAPGKGLEWVAQMRNKNYQYGTYYAESLEGRFTISRDDSKNSLYLQMNSLKTEDTAVYYCARESYYGFTSYWGQGTLVTVSS
VL: DIQMTQSPSSLSASVGDRVTITCQASQDIGISLSWYQQKPGKAPKLLIYNANNLADGVPSRFSGSGSGTDFTLTISSLQPEDFATYYCLQHNSAPYTFGQGTKLEIKR
notes: Made in CHO cells; also called CA030-240.g1; CA030_240.g1
A word on the Kd: it is the concentration at which binding is half-saturated. A word on the koff: it is the first-order rate constant of dissociation. As usually defined, the kon is a measure of how fast the partners come together. As for B1, the dissociation constant Kd in the test with Recombinant human IL-6 [1] was 9.76 pM; with Recombinant human IL-6 [6], 10.5 pM and 9.02 pM. For the same molecule, the “ND50, inhibition of IL-6 induced proliferation of T1165 cells” value in test [2] is 3.6 ng/ml and 23.8 pM; in test [3], 2.2 ng/ml and 14.5 pM; in test [4], 5.4 ng/ml and 35.6 pM; with Recombinant human IL-6 [5], 1.1 ng/ml and 7.26 pM. For the same molecule, the koff in the test with Recombinant human IL-6 [6] stood at 7.68e-06 s⁻¹. Also, the association rate constant (kon) with Recombinant human IL-6 [6] was 731000 M⁻¹ s⁻¹ and 852000 M⁻¹ s⁻¹.
